Source: article PMC6391002, “Myc-induced nuclear antigen constrains a latent intestinal epithelial cell-intrinsic anthelmintic pathway” (PLoS ONE, 2019)

B1: HD5: Reduced human enteric defensin 5, literature result (peptide, UniProt Q01523 20-94, looked up)
Defensin alpha 5: ESLQERADEATTQKQSGEDNQDLAISFAGNGLSALRTSGSQARATCYCRTGRCATRESLSGVCEISGRLYRLCCR
modifications: Defensin-5 reduced form
notes: Reduced human enteric defensin 5, literature result

Tests used:
L3 TM larvae = type: cell-based, Trichuris muris
Experimental: Synthetic reduced (r-)Defa1, r-Defa2, r-Defa4, r-Defa5 and r-Defa6, r-Defa20, r-Defa21, r-Defa23 and r-Defa24 were purchased from Medical and Biological Laboratories Co., Ltd. (Nagoya, japan) and stored at -30°C until use. Three pairs of disulfide bonds were introduced into synthetic Defa1 and Defa4 (Medical and Biological Laboratories Co., Ltd., Nagoya, japan) by air oxidation as described previously. Using reverse-phase high-performance liquid chromatography (RP-HPLC) reaction mixtures were applied to C-18 columns (SepaxHP-C18, 4.6 x 150mm, […]; Sepax Technologies, Newark, DE, USA) in 0.1% trifluoroacetic acid with an 18–36% acetonitrile gradient developed over 30min at 1ml/min. […] Disulfide bond status of Defas was evaluated by acid-urea PAGE and MALDI-TOF MS (Voyager-DE PRO; Applied Biosystems, Carlsbad, Calif., USA) as described previously. […]
Supplementary file pone.0211244.s012.pdf: S12 Fig Cytotoxic activity of α-defensins toward L3 TM larvae. Cytotoxic activity of reduced (r-) α-defensins 5, 20, 21, 23 and 24 against L3 TM larvae was measured by lactate dehydrogenase release assay. […]
Cytotoxic activity of reduced (r-) α-defensins 1, 2, 4, 5 and 6 against L3 TM larvae was measured by lactate dehydrogenase release assay. […]
Cytotoxic activity of reduced (r-) and oxidized (o-) α-defensins 1 and 4 against L3 TM larvae was measured by lactate dehydrogenase release assay. […]

[1] = system: LPS; macrophage production of TNF; details: reduced peptide; ref [27]; cited from earlier work
Excerpt: Given the prominence of α-defensin and α-defensin-related genes in the Mina genetic perturbation signature we considered whether they might contribute to the IEC-intrinsic roles of Mina in response to TM infection. Upregulation of α-defensins in Mina^ΔIEC mice could promote accelerated TM expulsion via multiple non-mutually exclusive mechanisms. First, it is well established that α-defensins can shape commensal microbiota diversity. Thus, α-defensins may act indirectly by altering commensal microbiota diversity, thereby eliminating niches essential for, or creating ones hostile toward, ...

Molecule | cytotoxicity against L3 TM larvae after oxidation of the peptide (oxidized, o-, form with three disulfide bonds), S14 Fig (L3 TM larvae) | LPS neutralization [1] | macrophage production of TNF [1]
Defa1: Synthetic reduced mouse α-defensin 1 peptide purchased from Medical and Biological Laboratories (LRDLVCYCRSRGCKGRERMNGTCRKGHLLYTLCCR; Alpha-defensin 1 reduced; UniProt P11477 59-93, looked up) | abolished by oxidation |  | 
B1 |  | can neutralize LPS | suppress
